{
  "source": "paper PMC5624926",
  "test": "recombinant expression of point mutants",
  "conditions": "glycan lost; control: wild-type CD22 20-330",
  "data": [
    {"substance": "CD22 (Siglec-2): N101A", "values": [
      {"measurement": "expression_or_secretion", "result": "decreases"}
    ]}
  ]
}
